Reference: patent publication US20130243753A1 (Genentech, published 2013)

T1: human Tyro3-Fc (human, UniProt Q06418 41-428)
T1 construct: not shown: Fc part not described
T1 sequence (looked up): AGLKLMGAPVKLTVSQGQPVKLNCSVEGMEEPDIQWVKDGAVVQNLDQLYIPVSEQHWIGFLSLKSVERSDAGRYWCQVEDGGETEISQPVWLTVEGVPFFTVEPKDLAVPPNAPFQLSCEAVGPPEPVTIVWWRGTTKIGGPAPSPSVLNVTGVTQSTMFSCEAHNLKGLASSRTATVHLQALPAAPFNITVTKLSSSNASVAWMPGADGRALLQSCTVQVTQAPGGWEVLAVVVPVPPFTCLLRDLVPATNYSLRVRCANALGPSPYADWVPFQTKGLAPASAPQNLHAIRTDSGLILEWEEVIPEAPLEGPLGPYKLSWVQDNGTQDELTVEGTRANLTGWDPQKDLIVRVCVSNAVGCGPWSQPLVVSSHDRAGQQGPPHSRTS

T2: human Mer-Fc (human, UniProt Q12866 26-499)
T2 construct: not shown: Fc part not described
T2 sequence (looked up): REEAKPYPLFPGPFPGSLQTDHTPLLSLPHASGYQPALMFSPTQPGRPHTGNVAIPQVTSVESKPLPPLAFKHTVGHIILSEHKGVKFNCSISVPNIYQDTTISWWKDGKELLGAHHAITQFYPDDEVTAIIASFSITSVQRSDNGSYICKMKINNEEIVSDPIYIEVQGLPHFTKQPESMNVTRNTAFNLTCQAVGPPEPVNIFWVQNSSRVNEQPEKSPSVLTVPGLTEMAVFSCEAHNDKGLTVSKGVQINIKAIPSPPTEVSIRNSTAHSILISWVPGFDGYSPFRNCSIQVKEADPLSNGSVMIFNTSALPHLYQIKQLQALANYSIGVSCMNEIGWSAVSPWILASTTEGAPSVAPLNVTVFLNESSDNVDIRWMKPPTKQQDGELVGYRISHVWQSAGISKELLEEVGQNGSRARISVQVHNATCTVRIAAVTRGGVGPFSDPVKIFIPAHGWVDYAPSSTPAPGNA


Tests used:
[1] = molecular target: human Axl-Fc (human) (UniProt P30530); assay: competition ELISA; human Axl-Fc captured on anti-human IgG Fc plate, blocked ligand Gas6 detected with biotinylated anti-Gas6 and streptavidin-HRP
human Axl-Fc (human), sequence (P30530 other isoform, or with tags, fused parts or gaps, form in doubt): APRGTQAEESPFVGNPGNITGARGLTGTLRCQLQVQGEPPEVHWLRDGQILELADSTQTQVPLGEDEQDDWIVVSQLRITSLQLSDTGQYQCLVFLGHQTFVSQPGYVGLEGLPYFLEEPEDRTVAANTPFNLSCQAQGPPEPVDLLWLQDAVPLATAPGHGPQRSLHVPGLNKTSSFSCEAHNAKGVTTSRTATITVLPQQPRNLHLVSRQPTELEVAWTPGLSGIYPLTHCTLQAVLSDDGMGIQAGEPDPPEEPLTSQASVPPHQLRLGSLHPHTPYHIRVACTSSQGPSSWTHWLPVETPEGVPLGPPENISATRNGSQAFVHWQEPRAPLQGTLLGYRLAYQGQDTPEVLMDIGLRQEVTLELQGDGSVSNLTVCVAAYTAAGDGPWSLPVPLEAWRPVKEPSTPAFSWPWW

[2] = molecular target: human Axl on the cell surface (HUVEC, A549, H1299, Baf3Axl cells) (human, UniProt P30530 26-894); assay: FACS on HUVEC; cells treated with antibody, then Gas6; blocked ligand Gas6 detected with biotinylated anti-Gas6 and streptavidin-PE
human Axl on the cell surface (HUVEC, A549, H1299, Baf3Axl cells), sequence (P30530 other isoform, or with tags, fused parts or gaps limits assumed): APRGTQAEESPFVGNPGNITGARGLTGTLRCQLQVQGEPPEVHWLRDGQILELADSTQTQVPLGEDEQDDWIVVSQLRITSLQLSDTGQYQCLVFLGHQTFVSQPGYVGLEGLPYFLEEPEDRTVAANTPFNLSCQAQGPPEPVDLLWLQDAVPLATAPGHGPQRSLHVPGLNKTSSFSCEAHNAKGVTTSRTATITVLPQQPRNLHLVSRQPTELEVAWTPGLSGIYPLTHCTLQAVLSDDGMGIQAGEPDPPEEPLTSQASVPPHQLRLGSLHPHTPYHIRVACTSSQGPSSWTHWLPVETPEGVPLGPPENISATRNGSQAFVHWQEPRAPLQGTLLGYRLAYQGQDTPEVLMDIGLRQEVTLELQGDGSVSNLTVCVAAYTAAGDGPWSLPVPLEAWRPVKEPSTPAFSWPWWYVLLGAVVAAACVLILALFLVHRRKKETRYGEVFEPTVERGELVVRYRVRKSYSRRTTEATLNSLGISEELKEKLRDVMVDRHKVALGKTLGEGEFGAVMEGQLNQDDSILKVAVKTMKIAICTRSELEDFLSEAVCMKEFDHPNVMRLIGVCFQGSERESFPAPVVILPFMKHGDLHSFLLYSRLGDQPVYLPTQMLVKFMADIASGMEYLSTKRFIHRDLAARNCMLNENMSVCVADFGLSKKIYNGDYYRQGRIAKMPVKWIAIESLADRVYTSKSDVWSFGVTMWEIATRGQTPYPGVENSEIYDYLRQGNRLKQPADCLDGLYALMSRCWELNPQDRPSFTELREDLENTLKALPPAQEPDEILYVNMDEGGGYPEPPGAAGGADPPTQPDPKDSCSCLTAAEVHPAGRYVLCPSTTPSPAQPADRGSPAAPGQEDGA

[3] = molecular target: T1, human Tyro3-Fc; assay: ELISA; receptor-Fc captured on anti-human IgG Fc coated plate
Description: (§1) Plates were coated with anti-human IgG Fc, and then incubated with human Axl, Mer, Tyro3 Fcs, mouse or cynomolgus AxlFcs. […] FIG. 7D: ELISA. Plates were coated with anti-human IgG Fc and incubated with human Axl-Fc. […] FIG. 7E: FACS. […] A549 cells were incubated with 1 μg/mlYW327.6S2 for indicated time, and cell surface Axl expression was determined by FACS (upper panel), and total protein expression by Western Blotting analysis (lower panel). […] Phosphorylated Axl was measured by ELISA (upper panel), and phosphorylated Akt by Western Blotting analysis (lower panel). […] Cell viability was measured by CellTiter Glo assay.
(§2) ELISA assays were performed as follows: goat anti-human IgG Fc coated plates were blocking with 0.5% BSA, PBS, 0.05% Tween 20 (PBST). For cross reaction assay, coated plates were incubated with human Axl.Fc, mouse Axl.Fc or human Mer.Fc, Tyro-3.Fc for 1 hr at room temperature, washed four times in PBST, incubated with anti-Axl mAbs and HRP-conjugated anti-mouse Ig. […] Plates were washed four times in PBST, incubated with biotinylated anti-mGas6 and strepavidin-HRP. Secreted Ang-2 and DKK3 was measured using R&D ELISA kit, according to the manufacturer's instruction.

[4] = molecular target: T2, human Mer-Fc; assay: as above
Description: as §1, §2

[5] = molecular target: human Axl ECD-His protein (human) (UniProt P30530); assay: SPR (BIAcore-3000): IgG captured by anti-human IgG, human Axl ECD-His injected
[6] = molecular target: T3, murine Axl ECD-Fc fusion protein (murine; human, UniProt Q00993 19-445); assay: SPR (BIAcore-3000): murine Axl ECD-Fc captured by anti-human IgG, anti-Axl Fab injected
T3 construct: extracellular domain; also called murine Axl ECD human IgG fusion protein; mouse Axl.Fc; not shown: human IgG Fc
T3 sequence (Q00993 19-445): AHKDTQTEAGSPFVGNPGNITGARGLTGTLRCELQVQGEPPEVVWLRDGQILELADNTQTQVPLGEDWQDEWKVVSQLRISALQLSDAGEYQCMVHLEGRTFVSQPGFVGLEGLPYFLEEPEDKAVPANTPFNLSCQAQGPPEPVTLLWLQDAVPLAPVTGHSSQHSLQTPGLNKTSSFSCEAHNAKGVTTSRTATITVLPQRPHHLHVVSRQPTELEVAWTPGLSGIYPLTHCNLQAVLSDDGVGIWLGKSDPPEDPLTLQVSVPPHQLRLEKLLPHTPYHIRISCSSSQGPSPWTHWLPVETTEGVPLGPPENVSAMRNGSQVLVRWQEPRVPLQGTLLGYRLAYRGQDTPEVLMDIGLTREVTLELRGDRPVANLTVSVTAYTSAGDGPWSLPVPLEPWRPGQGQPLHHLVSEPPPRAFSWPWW
Description: Association rates (kₒₙ) and dissociation rates (koff) were calculated using a simple one-to-one Langmuir binding model (BIAcore Evaluation Software version 3.2).

Binder | IC50 (read off the curve) [1] [µg/mL] | IC50 (read off the curve) [2] [µg/mL] | binding result [3] | binding result [4] | Kd [5] [nM] | Kd [6] [nM]
Affinity matured Axl mAb YW327.6S2 (full-length human IgG) (antibody, V domains shown, No sentence ties these to this name, so they are not used; also called YW327.652) VH: EVQLVESGGGLVQPGGSLRLSCAASGFSLSGSWIHWVRQAPGKGLEWVGWINPYRGYAYYADSVKGRFTISADTSKNTAYLQMNSLRAEDTAVYYCAREYSGWGGSSVGYAMDYWGQGTLVTVSS VL: DIQMTQSPSSLSASVGDRVTITCRASQDVSTAVAWYQQKPGKAPKLLIYSASFLYSGVPSRFSGSGSGTDFTLTISSLQPEDFATYYCQQSYTTPPTFGQGTKVEIK | 0.02 | ~0.1 | no binding (tested: concentration not shown) | no binding (tested: concentration not shown) | 1 | –
YW327.6S2 Fab fragment (Fab, V domains shown, The result sentence names only the mAb; also called anti-Axl Fab fragment; YW327.652) VH: EVQLVESGGGLVQPGGSLRLSCAASGFSLSGSWIHWVRQAPGKGLEWVGWINPYRGYAYYADSVKGRFTISADTSKNTAYLQMNSLRAEDTAVYYCAREYSGWGGSSVGYAMDYWGQGTLVTVSS VL: DIQMTQSPSSLSASVGDRVTITCRASQDVSTAVAWYQQKPGKAPKLLIYSASFLYSGVPSRFSGSGSGTDFTLTISSLQPEDFATYYCQQSYTTPPTFGQGTKVEIK | – | – | – | – | – | 0.545
